The source of these data is PMC2965030 (2009).

In the assay the target is t-PA (Homo sapiens, UniProt P00750). Briefly: SPR.
Sequence of t-PA (P00750 36-562): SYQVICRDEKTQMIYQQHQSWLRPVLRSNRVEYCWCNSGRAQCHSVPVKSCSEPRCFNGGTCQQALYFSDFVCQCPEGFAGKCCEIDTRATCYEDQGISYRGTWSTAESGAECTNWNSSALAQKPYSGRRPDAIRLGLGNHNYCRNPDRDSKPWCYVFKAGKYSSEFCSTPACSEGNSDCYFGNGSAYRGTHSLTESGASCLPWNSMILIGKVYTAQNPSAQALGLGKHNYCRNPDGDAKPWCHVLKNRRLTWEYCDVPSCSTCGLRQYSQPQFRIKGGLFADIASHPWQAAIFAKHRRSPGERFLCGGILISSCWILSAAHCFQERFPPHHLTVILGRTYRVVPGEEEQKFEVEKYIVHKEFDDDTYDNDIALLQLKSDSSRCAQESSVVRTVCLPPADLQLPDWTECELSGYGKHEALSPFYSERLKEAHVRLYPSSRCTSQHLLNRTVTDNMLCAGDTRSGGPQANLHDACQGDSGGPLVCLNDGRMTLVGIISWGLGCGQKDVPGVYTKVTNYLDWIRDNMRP

B1: β2-glycoprotein I (protein)
chain: GRTCPKPDDLPFSTVVPLKTFYEPGEEITYSCKPGYVSRGGMRKFICPLTGLWPINTLKCTPRVCPFAGILENGAVRYTTFEYPNTISFSCNTGFYLNGADSAKCTEEGKWSPELPVCAPIICPPPSIPTFATLRVYKPSAGNNSLYRDTAVFECLPQHAMFGNDTITCTTHGNWTKLPECREVKCPFPSRPDNGFVNYPAKPTLYYKDKATFGCHDGYSLDGPEEIECTKLGNWSAMPSCKASCKVPVKKATVVYQGERVKIQEKFKNGMLHGDKVSFFCKNKEKKCSYTEDAQCIDGTIEVPKCFKEHSSLAFWKTDASDVKPC
For B1, the Kd came to 0.02 µM.
